One protein from US20240197738 can be followed below.

The data set concerns the target EWS-FLI1-3A (S464A/S465A/S466A).

B1: OTUD7A (protein)
chain: MVSSVLPNPTSAECWAALLHDPMTLDMDAVLSDFVRSTGAEPGLARDLLEGKNWDLTAALSDYEQLRQVHTANLPHVFNEGRGPKQPEREPQPGHKVERPCLQRQDDIAQEKRLSRGISHASSAIVSLARSHVASECNNEQFPLEMPIYTFQLPDLSVYSEDFRSFIERDLIEQATMVALEQAGRLNWWSTVCTSCKRLLPLATTGDGNCLLHAASLGMWGFHDRDLVLRKALYTMMRTGAEREALKRRWRWQQTQQNKEEEWEREWTELLKLASSEPRTHFSKNGGTGGGVDNSEDPVYESLEEFHVFVLAHILRRPIVVVADTMLRDSGGEAFAPIPFGGIYLPLEVPPNRCHCSPLVLAYDQAHFSALVSMEQRDQQREQAVIPLTDSEHKLLPLHFAVDPGKDWEWGKDDNDNARLAHLILSLEAKLNLLHSYMNVTWIRIPSETRAPLAQPESPTASAGEDVQSLADSLDSDRDSVCSNSNSNNGKNGKDKEKEKQRKEKDKTRADSVANKLGSFSKTLGIKLKKNMGGLGGLVHGKMGRANSANGKNGDSAERGKEKKAKSRKGSKEESGASASTSPSEKTTPSPTDKAAGASPAEKGGGPRGDAWKYSTDVKLSLNILRAAMQGERKFIFAGLLLTSHRHQFHEEMIGYYLTSAQERFSAEQEQRRRDAATAAAAAAAAAAATAKRPPRRPETEGVPVPERASPGPPTQLVLKLKERPSPGPAAGRAARAAAGGTASPGGGARRASASGPVPGRSPPAPARQSVIHVQASGARDEACAPAVGALRPCATYPQQNRSLSSQSYSPARAAALRTVNTVESLARAVPGALPGAAGTAGAAEHKSQTYTNGFGALRDGLEFADADAPTARSNGECGRGGPGPVQRRCQRENCAFYGRAETEHYCSYCYREELRRRREARGARP
Take B1: the “3A-EWS-FLI1 protein level after OTUD7A depletion (immunoblot, FIG. 3I)” value is on record as “depletion of OTUD7A failed to reduce 3A-EWS-FLI1 protein levels”.
